Values quoted from earlier work, collected in publication PMC9437294.
pKd: −log10 of the molar value.

Molecular target: 5-HT1A receptor C-terminus (UniProt P19327)

- pKd: 7.43
Substance: Yif1B N-terminal region (from UniProt Q6PEC3)
